ELISA score and EC50 data for 16 molecules are collected here from patent US20140356358A1 (Amgen, published 2014).

The target of assay [1] is T1, human neonatal Fc receptor (hFcRn) (human, UniProt P55899 24-290; P61769 21-119).
T1 construct: Biotinylated in the ELISA, Octet and yeast assays; also called human FcRn; huFcRn
Description: phage ELISA pH 7.4. (ELISA stands for enzyme-linked immunosorbent assay.)

Assay [2] concerns the target T1, human neonatal Fc receptor (hFcRn). The assay is described as follows: phage ELISA pH 6.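 Note: higher score means stronger binding and above about 3 to 5 exceeds background.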
Assay [3] shares this target. Description: SPR competition pH 5.5. As to the method:
(§1) Binding of variant Fc-fragments to human and cynomolgus monkey FcRn was tested using a BIAcore® T100 analysis system (GE Healthcare Bio-Sciences AB Private Limited Liability Company, Uppsala, Sweden) at both pH 5.5 and pH 7.4. The test consisted of incubating various concentrations of the variant Fc-fragments or control Fc-fragments with a fixed amount of human or cynomolgus monkey FcRn under binding conditions and subsequently measuring the amount of free, unbound FcRn in these mixtures by binding to a surface (in a flow cell of a CM5 (Biacore) chip) on which an Fc-fragment was immobilized. […] Thus, the amount of unbound FcRn in the mixture was quantitatively ascertained by surface plasmon resonance through use of the BIAcore® T100 analysis system. […] Initially, a group of 23 variant-Fc-fragments (Fc-5-1 being considered a control) identified in the experiments described above were tested for binding to human FcRn.
(§2) To obtain a reasonable signal for the different molecules and conditions tested, different assay conditions were used. For assays at pH 5.5, 10 nM of human or cynomolgus monkey FcRn was mixed with serial dilutions of the variant and control Fc-fragments being tested (which ranged from 0.1˜2,000 nM) and incubated for 1 hour at room temperature in 10 mM sodium acetate, pH 5.5, 150 mM NaCl, 0.005% P20, 0.1 mg/mL BSA. As positive controls, […] human and cynomolgus monkey FcRn were each incubated in the same solution, for the same time, and at the same temperature described immediately above, but without an added Fc-fragment.

A further assay has as its target T2, cynomolgus monkey FcRn (cynomolgus monkey, UniProt Q8SPV9 24-297; Q8SPW0 21-119, limits assumed).
T2 construct: also called Cynomolgus FcRn
Description: SPR competition pH 5.5. As to the method:
as §1, §2
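Throughout, for ELISA score: higher score means stronger binding and above about 3 to 5 exceeds background.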

T2 sequence (Q8SPV9 24-297 limits assumed, chain 1 of 2): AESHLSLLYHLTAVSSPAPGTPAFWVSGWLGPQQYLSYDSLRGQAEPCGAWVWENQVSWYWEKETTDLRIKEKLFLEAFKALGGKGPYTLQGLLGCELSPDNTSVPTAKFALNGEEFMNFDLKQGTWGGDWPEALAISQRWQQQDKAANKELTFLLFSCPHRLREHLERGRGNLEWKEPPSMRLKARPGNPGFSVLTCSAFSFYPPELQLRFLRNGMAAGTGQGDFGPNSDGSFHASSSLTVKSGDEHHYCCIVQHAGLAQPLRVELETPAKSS
T2 sequence (Q8SPW0 21-119 limits assumed, chain 2 of 2): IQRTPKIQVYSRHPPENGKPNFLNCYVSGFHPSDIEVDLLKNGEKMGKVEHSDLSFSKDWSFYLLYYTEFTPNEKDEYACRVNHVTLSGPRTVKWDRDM
T1 sequence (P55899 24-290 limits assumed, chain 1 of 2): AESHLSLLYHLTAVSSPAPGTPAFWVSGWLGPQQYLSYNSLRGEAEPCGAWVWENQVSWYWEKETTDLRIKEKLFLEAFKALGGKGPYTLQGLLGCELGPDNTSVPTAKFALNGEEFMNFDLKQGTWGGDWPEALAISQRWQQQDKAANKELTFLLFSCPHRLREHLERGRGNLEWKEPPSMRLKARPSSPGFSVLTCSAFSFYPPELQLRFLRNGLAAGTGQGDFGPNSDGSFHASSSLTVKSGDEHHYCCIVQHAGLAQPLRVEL
T1 sequence (P61769 21-119 limits assumed, chain 2 of 2): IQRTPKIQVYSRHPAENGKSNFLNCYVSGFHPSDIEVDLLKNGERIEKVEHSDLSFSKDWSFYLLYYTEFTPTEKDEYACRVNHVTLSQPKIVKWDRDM

B1: L5 isolate with insertion SEQ ID NO: 490 (other)
chain: EPKSCDKTHTCPPCPAPELLGGPSVFLFPPKPKDTLMISRTPEVTCVVVDVSHEDPEVKFNWYVDGVEVHNAKTKPREEQYNSTYRVVSVLTVLHQDWLNGKEYKCKVSNKALPAPIEKTISKAKGQPREPQVYTLPPSRDELTKNQVSLTCLVKGFYPSDIAVEWESNGGCDRQVTGFCGGGQPENNYKTTPPVLDSDGSFFLYSKLTVDKSRWQQGNVFSCSVMHEALHNHYTQKSLSLSPGK
With B1, the ELISA score stood at 0.4 in assay [1] and 25 in assay [2].

B2: L6B isolate with insertion SEQ ID NO: 473 (other)
chain: EPKSCDKTHTCPPCPAPELLGGPSVFLFPPKPKDTLMISRTPEVTCVVVDVSHEDPEVKFNWYVDGVEVHNAKTKPREEQYNSTYRVVSVLTVLHQDWLNGKEYKCKVSNKALPAPIEKTISKAKGQPREPQVYTLPPSRDELGGCSFSRHMGACGGTKNQVSLTCLVKGFYPSDIAVEWESNGQPENNYKTTPPVLDSDGSFFLYSKLTVDKSRWQQGNVFSCSVMHEALHNHYTQKSLSLSPGK
For B2, the ELISA score in assay [1] worked out at 0.3; in assay [2], 41.8.

B3: variant Fc-fragment Fc-5-57 (other)
chain: EPKSCDKTHTCPPCPAPELLGGPSVFLFPPKPKDTLMISRTPEVTCVVVDVSHEDPEVKFNWYVDGVEVHNAKTKPREEQYNSTYRVVSVLTVLHQDWLNGKEYKCKVSNKALPAPIEKTISKAKGQPREPQVYTLPPSRDELTKNQVSLTCLVKGFYPSDIAVEWESNGGCGKHWHQCGGGQPENNYKTTPPVLDSDGSFFLYSKLTVDKSRWQQGNVFSCSVMHEALHNHYTQKSLSLSPGK
notes: soluble elsewhere
In general, EC50 refers to the concentration needed to bring the measured effect to its halfway point. Regarding B3, the ELISA score in assay [1] came out at 0.3; in assay [2] it was 57.8. In addition, the concentration for a half-maximal effect (EC50) in assay [3] came out at 0.18 µM.

B4: variant Fc-fragment Fc-5-64 (other)
chain: EPKSCDKTHTCPPCPAPELLGGPSVFLFPPKPKDTLMISRTPEVTCVVVDVSHEDPEVKFNWYVDGVEVHNAKTKPREEQYNSTYRVVSVLTVLHQDWLNGKEYKCKVSNKALPAPIEKTISKAKGQPREPQVYTLPPSRDELTKNQVSLTCLVKGFYPSDIAVEWESNGGCHSFKHFCGGGQPENNYKTTPPVLDSDGSFFLYSKLTVDKSRWQQGNVFSCSVMHEALHNHYTQKSLSLSPGK
notes: soluble elsewhere
B4: the ELISA score in assay [1] was determined as 0.4; in assay [2], 57.2. In assay [3], this molecule showed a concentration for a half-maximal effect (EC50) of 0.21 µM.

B5: variant Fc-fragment Fc-5-95 (other)
chain: EPKSCDKTHTCPPCPAPELLGGPSVFLFPPKPKDTLMISRTPEVTCVVVDVSHEDPEVKFNWYVDGVEVHNAKTKPREEQYNSTYRVVSVLTVLHQDWLNGKEYKCKVSNKALPAPIEKTISKAKGQPREPQVYTLPPSRDELTKNQVSLTCLVKGFYPSDIAVEWESNGGCDRPVWFCGGGQPENNYKTTPPVLDSDGSFFLYSKLTVDKSRWQQGNVFSCSVMHEALHNHYTQKSLSLSPGK
notes: library L5 isolate
In the case of B5, the values for the EC50 (with cynomolgus monkey FcRn; in assay [3]) were 0.05 µM and 0.042 µM, respectively.

B6: variant Fc-fragment Fc-5-79 (other)
chain: EPKSCDKTHTCPPCPAPELLGGPSVFLFPPKPKDTLMISRTPEVTCVVVDVSHEDPEVKFNWYVDGVEVHNAKTKPREEQYNSTYRVVSVLTVLHQDWLNGKEYKCKVSNKALPAPIEKTISKAKGQPREPQVYTLPPSRDELTKNQVSLTCLVKGFYPSDIAVEWESNGGCVNTWWSCGGGQPENNYKTTPPVLDSDGSFFLYSKLTVDKSRWQQGNVFSCSVMHEALHNHYTQKSLSLSPGK
notes: library L5 isolate
With B6, the EC50 with cynomolgus monkey FcRn worked out at 0.063 µM; in assay [3] it was 0.053 µM.

B7: variant Fc-fragment Fc-5-55 (other)
chain: EPKSCDKTHTCPPCPAPELLGGPSVFLFPPKPKDTLMISRTPEVTCVVVDVSHEDPEVKFNWYVDGVEVHNAKTKPREEQYNSTYRVVSVLTVLHQDWLNGKEYKCKVSNKALPAPIEKTISKAKGQPREPQVYTLPPSRDELTKNQVSLTCLVKGFYPSDIAVEWESNGGCMQVWGSCGGGQPENNYKTTPPVLDSDGSFFLYSKLTVDKSRWQQGNVFSCSVMHEALHNHYTQKSLSLSPGK
notes: library L5 isolate
B7: the results for the concentration giving a half-maximal response (EC50) (with cynomolgus monkey FcRn; in assay [3]) were 0.053 µM and 0.049 µM, respectively.

B8: variant Fc-fragment Fc-5-97 (other)
chain: EPKSCDKTHTCPPCPAPELLGGPSVFLFPPKPKDTLMISRTPEVTCVVVDVSHEDPEVKFNWYVDGVEVHNAKTKPREEQYNSTYRVVSVLTVLHQDWLNGKEYKCKVSNKALPAPIEKTISKAKGQPREPQVYTLPPSRDELTKNQVSLTCLVKGFYPSDIAVEWESNGGCNMLWGSCGGGQPENNYKTTPPVLDSDGSFFLYSKLTVDKSRWQQGNVFSCSVMHEALHNHYTQKSLSLSPGK
notes: library L5 isolate
Turning to B8, the results for the concentration for a half-maximal effect (EC50) (in the assay with cynomolgus monkey FcRn; in assay [3]) were 0.031 µM and 0.025 µM, respectively.

B9: variant Fc-fragment Fc-5-110 (other)
chain: EPKSCDKTHTCPPCPAPELLGGPSVFLFPPKPKDTLMISRTPEVTCVVVDVSHEDPEVKFNWYVDGVEVHNAKTKPREEQYNSTYRVVSVLTVLHQDWLNGKEYKCKVSNKALPAPIEKTISKAKGQPREPQVYTLPPSRDELTKNQVSLTCLVKGFYPSDIAVEWESNGGCWGSRSQCGGGQPENNYKTTPPVLDSDGSFFLYSKLTVDKSRWQQGNVFSCSVMHEALHNHYTQKSLSLSPGK
notes: library L5 isolate
In assay [3], B9 came in with an EC50 of 0.25 µM.

B10: variant Fc-fragment Fc-5-99 (other)
chain: EPKSCDKTHTCPPCPAPELLGGPSVFLFPPKPKDTLMISRTPEVTCVVVDVSHEDPEVKFNWYVDGVEVHNAKTKPREEQYNSTYRVVSVLTVLHQDWLNGKEYKCKVSNKALPAPIEKTISKAKGQPREPQVYTLPPSRDELTKNQVSLTCLVKGFYPSDIAVEWESNGGCYITQKLCGGGQPENNYKTTPPVLDSDGSFFLYSKLTVDKSRWQQGNVFSCSVMHEALHNHYTQKSLSLSPGK
notes: library L5 isolate
B10: the EC50 with cynomolgus monkey FcRn was 0.016 µM; in assay [3], 0.015 µM.

B11: variant Fc-fragment Fc-5-70 (other)
chain: EPKSCDKTHTCPPCPAPELLGGPSVFLFPPKPKDTLMISRTPEVTCVVVDVSHEDPEVKFNWYVDGVEVHNAKTKPREEQYNSTYRVVSVLTVLHQDWLNGKEYKCKVSNKALPAPIEKTISKAKGQPREPQVYTLPPSRDELTKNQVSLTCLVKGFYPSDIAVEWESNGGCMVPFSMCGGGQPENNYKTTPPVLDSDGSFFLYSKLTVDKSRWQQGNVFSCSVMHEALHNHYTQKSLSLSPGK
notes: library L5 isolate
For the molecule B11, the EC50 with cynomolgus monkey FcRn was determined as 0.027 µM; in assay [3] it was 0.026 µM.

B12: variant Fc-fragment Fc-5-92 (other)
chain: EPKSCDKTHTCPPCPAPELLGGPSVFLFPPKPKDTLMISRTPEVTCVVVDVSHEDPEVKFNWYVDGVEVHNAKTKPREEQYNSTYRVVSVLTVLHQDWLNGKEYKCKVSNKALPAPIEKTISKAKGQPREPQVYTLPPSRDELTKNQVSLTCLVKGFYPSDIAVEWESNGGCDGRTKYCGGGQPENNYKTTPPVLDSDGSFFLYSKLTVDKSRWQQGNVFSCSVMHEALHNHYTQKSLSLSPGK
notes: soluble elsewhere
Take B12: the ELISA score in assay [1] amounted to 0.5; in assay [2], 64.1. The molecule also returned an EC50 in assay [3] of 0.075 µM.

B13: variant Fc-fragment Fc-5-96 (other)
chain: EPKSCDKTHTCPPCPAPELLGGPSVFLFPPKPKDTLMISRTPEVTCVVVDVSHEDPEVKFNWYVDGVEVHNAKTKPREEQYNSTYRVVSVLTVLHQDWLNGKEYKCKVSNKALPAPIEKTISKAKGQPREPQVYTLPPSRDELTKNQVSLTCLVKGFYPSDIAVEWESNGGCMQMNKWCGGGQPENNYKTTPPVLDSDGSFFLYSKLTVDKSRWQQGNVFSCSVMHEALHNHYTQKSLSLSPGK
notes: soluble elsewhere
In the case of B13, the ELISA score in assay [1] is 0.5; in assay [2] it was 72.7. In assay [3], this molecule displayed a half-maximal effective concentration (EC50) of 0.076 µM.

B14: variant Fc-fragment Fc-5-85 (other)
chain: EPKSCDKTHTCPPCPAPELLGGPSVFLFPPKPKDTLMISRTPEVTCVVVDVSHEDPEVKFNWYVDGVEVHNAKTKPREEQYNSTYRVVSVLTVLHQDWLNGKEYKCKVSNKALPAPIEKTISKAKGQPREPQVYTLPPSRDELTKNQVSLTCLVKGFYPSDIAVEWESNGGCIGPFWWCGGGQPENNYKTTPPVLDSDGSFFLYSKLTVDKSRWQQGNVFSCSVMHEALHNHYTQKSLSLSPGK
notes: library L5 isolate
With B14, the EC50 with cynomolgus monkey FcRn worked out at 0.025 µM; in assay [3] it was 0.018 µM.

B15: variant Fc-fragment Fc-5-60 (other)
chain: EPKSCDKTHTCPPCPAPELLGGPSVFLFPPKPKDTLMISRTPEVTCVVVDVSHEDPEVKFNWYVDGVEVHNAKTKPREEQYNSTYRVVSVLTVLHQDWLNGKEYKCKVSNKALPAPIEKTISKAKGQPREPQVYTLPPSRDELTKNQVSLTCLVKGFYPSDIAVEWESNGGCQKGWVFCGGGQPENNYKTTPPVLDSDGSFFLYSKLTVDKSRWQQGNVFSCSVMHEALHNHYTQKSLSLSPGK
notes: library L5 isolate
For B15, the values for the EC50 (with cynomolgus monkey FcRn; in assay [3]) were 0.06 µM and 0.067 µM, respectively.

B16: variant Fc-fragment Fc-5-73 (other)
chain: EPKSCDKTHTCPPCPAPELLGGPSVFLFPPKPKDTLMISRTPEVTCVVVDVSHEDPEVKFNWYVDGVEVHNAKTKPREEQYNSTYRVVSVLTVLHQDWLNGKEYKCKVSNKALPAPIEKTISKAKGQPREPQVYTLPPSRDELTKNQVSLTCLVKGFYPSDIAVEWESNGGCAQQWHHEYCGGGQPENNYKTTPPVLDSDGSFFLYSKLTVDKSRWQQGNVFSCSVMHEALHNHYTQKSLSLSPGK
notes: soluble elsewhere
For the molecule B16, the ELISA score in assay [1] is 0.3; in assay [2], 54.5. Further, in assay [3], a half-maximal effect (EC50) was put at 0.19 µM.
